Results on two molecules are retold here after patent US20240190958A1 (TUBULIS, published 2024).

The target of test [1] is T1, human NaPi2b on NaPi2b-positive cell lines OVCAR-3 and HCC-78 (human, UniProt O95436 1-690).
T1 sequence: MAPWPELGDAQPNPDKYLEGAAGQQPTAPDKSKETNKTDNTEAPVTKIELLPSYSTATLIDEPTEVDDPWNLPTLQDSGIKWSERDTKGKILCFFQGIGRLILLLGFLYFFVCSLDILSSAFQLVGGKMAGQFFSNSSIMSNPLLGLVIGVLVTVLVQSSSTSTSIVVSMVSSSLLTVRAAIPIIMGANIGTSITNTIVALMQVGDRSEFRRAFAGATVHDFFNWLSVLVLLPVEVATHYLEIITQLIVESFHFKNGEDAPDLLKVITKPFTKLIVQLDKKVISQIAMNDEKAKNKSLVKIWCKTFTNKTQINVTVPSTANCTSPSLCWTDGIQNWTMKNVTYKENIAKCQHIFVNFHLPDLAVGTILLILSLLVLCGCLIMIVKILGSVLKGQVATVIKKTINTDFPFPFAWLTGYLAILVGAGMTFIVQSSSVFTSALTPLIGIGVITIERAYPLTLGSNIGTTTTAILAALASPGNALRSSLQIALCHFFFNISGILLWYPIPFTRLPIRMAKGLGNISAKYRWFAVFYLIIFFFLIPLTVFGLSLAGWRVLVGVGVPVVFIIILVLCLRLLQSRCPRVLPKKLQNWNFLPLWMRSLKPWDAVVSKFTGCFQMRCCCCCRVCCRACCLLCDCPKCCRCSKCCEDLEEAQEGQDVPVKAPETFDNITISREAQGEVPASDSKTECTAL
The test can be described thus: cell-based or functional assay.

The target of test [2] is T2, recombinant human FcγRIIa/CD32 H131 (Lumit binding immunoassay) (human, UniProt P12318 34-217, limits assumed).
T2 construct: Kit reagent (Promega), used as an FcγR-SmBiT fusion; also called FcγRIIa/CD32 R131/H131 polymorphism
T2 sequence (looked up): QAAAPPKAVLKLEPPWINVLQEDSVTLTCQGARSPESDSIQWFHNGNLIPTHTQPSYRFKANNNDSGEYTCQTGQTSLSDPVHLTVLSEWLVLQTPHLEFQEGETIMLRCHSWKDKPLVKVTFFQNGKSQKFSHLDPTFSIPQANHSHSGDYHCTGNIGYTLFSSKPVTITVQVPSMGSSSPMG
The test can be described thus: Lumit FcγRIIa (CD32) (H131) Binding Immunoassay (Promega), competition with Tracer-LgBiT for FcγR-SmBiT, luminescence, n=1; left panel.
Experimental: Luminescence was measured on a microplate reader Infinite M200 Pro (Tecan).
FcγR interaction studies were performed using the Lumit™ FcγR Binding Immunoassays (FcγRn, FcγRI, FcγRIIa/CD32 R131/H131 polymorphism, FcγRIIIa/CD16 V158/F158 polymorphism; Promega) based on a competition principle and luciferase detection according to the manufacturer's instructions. […] Luminescence is measured on a microplate reader Infinite M200 Pro (Tecan)._Graphs show n=1.

B1: AV25-P5(PEG24)-VC-PAB-Exatecan DAR8 ADC (antibody, human IgG1, kappa, L234A L235A)
heavy: not shown
light: DIQMTQSPSSLSASVGDRVTITCSASQDIGNFLNWYQQKPGKTVKVLIYYASSLYSGVPSRFSGSGSGTDYTLTISSLQPEDFATYYCQQYSKLPLTFGQGTKLELKRTVAAPSVFIFPPSDEQLKSGTASVVCLLNNFYPREAKVQWKVDNALQSGNSQESVTEQDSKDSTYSLSSTLTLSKADYEKHKVYACEVTHQGLSSPVTKSFNRGEC
modifications: P5(PEG24)-VC-PAB-Exatecan linker-payload on the interchain cysteine residue (light chain adduct 1; DAR8 in total); P5(PEG24)-VC-PAB-Exatecan linker-payload on interchain cysteine residues (heavy chain adducts up to 3; DAR8 in total)
notes: also called TUB-040
Regarding B1, the “cytotoxicity (resazurin assay) on HCC-78, fold lower IC50 against the anti-Napi2b comparison ADC” value in test [1] amounted to 15.5 fold. Further, the binding result in test [2] is “no binding (tested: 250 µg/ml)”.

B2: AV25 mAb (LALA-silenced, AV25 HC-LALA) (antibody, human IgG1, kappa, L234A L235A)
heavy: not shown
light: B1 light
notes: IgG1 kappa; also called unmodified AV25 mAb
As for B2, the binding result in test [2] is listed as “no binding (tested: 250 µg/ml)”.
